Results published in PMC10516925, “Determining subunit-subunit interaction from statistics of cryo-EM images: observation of nearest-neighbor coupling in a circadian clock protein complex” (Nature Communications, 2023).
Blank lines part the entries; values can stand above or below the molecule they belong to.

Tests used:
KaiC-AA (S431A, T432A) = KaiC-AA (S431A, T432A) (UniProt Q79PF4); test: cryo-EM structure; single-particle cryo-EM of pure KaiC-AA or KaiC-EE, 0.35 ug/ul in 20 mM Tris-HCl (pH 8.0), 150 mM NaCl, 5 mM MgCl2, 0.5 mM EDTA, 1 mM ATP; incubated at 30 °C for 6 h
[1] = target: the molecule itself; test: as above

stoichiometry N (KaiC-AA (S431A, T432A)): 6
Molecule: KaiC-AA (S431A, T432A) (from UniProt Q79PF4 14-484) (natural protein)

B1: KaiC-EE (S431E, T432E) (natural protein)
chain: EHQAIAKMRTMIEGFDDISHGGLPIGRSTLVSGTSGTGKTLFSIQFLYNGIIEFDEPGVFVTFEETPQDIIKNARSFGWDLAKLVDEGKLFILDASPDPEGQEVVGGFDLSALIERINYAIQKYRARRVSIDSVTSVFQQYDASSVVRRELFRLVARLKQIGATTVMTTERIEEYGPIARYGVEEFVSDNVVILRNVLEGERRRRTLEILKLRGTSHMKGEYPFTITDHGINIFPLGAMRLTQRSSNVRVSSGVVRLDEMCGGGFFKDSIILATGATGTGKTLLVSRFVENACANKERAILFAYEESRAQLLRNAYSWGMDFEEMERQNLLKIVCAYPESAGLEDHLQIIKSEINDFKPARIAIDSLSALARGVSNNAFRQFVIGVTGYAKQEEITGLFTNTSDQFMGAHSITDSHIEEITDTIILLQYVEIRGEMSRAINVFKMRGSWHDKAIREFMISDKGPDIKDSFRNFERIISGSPTRI
notes: source: hexamer fractions selected; not shown: His6, N-terminal, cleaved
stoichiometry N [1]: 6
